Data as given in paper PMC6978808, “In Situ Structure of an Intact Lipopolysaccharide-Bound Bacterial Surface Layer” (Cell, 2020).
Values joined by “and” are separate entries in the source; they are usually repeats but may differ in a detail not shown here. Equal entries are not always repeated.

Assays:
[1] = biological target: the molecule itself; experiment: native MS; RsaANTD:PS sample after removal of Ca2+ on Zeba micro spin desalting columns
[2] = biological target: the molecule itself; experiment: cryo-EM structure; single-particle cryo-EM of the purified RsaANTD:PS complex, 3.7 Å; PS and Ca2+ bound
[3] = biological target: the molecule itself; experiment: native MS; purified RsaANTD:PS complex with Ca2+; Q-Exactive UHMR; tandem MS (HCD 220 V) to assign the oligomers

B1: N-terminal domain of RsaA (RsaANTD) (domain or fragment, Caulobacter crescentus)
chain: AYTTAQLVTAYTNANLGKAPDAATTLTLDAYATQTQTGGLSDAAALTNTLKLVNSTTAVAIQTYQFFTGVAPSAAGLDFLVDSTTNTNDLNDAYYSKFAQENRFINFSINLATGAGAGATAFAAAYTGVSYAQTVATAYDKIIGNAVATAAGVDVAAAVAFLSRQANIDYLTAFVRANTPFTAAADIDLAVKAALIGTILNAATVSGIGGYATATAAMINDLSDGALSTDNAAGVNLFTAYPSSGVSGSEN
notes: S-layer protein RsaA of Caulobacter crescentus (1026 residues), N-terminal domain; the introduction defines RsaANTD as residues 1-249; residues 2-243 are built in the cryo-EM model; Cleavage by TEV protease after Gln would leave Glu-Asn-Leu-Tyr-Phe-Gln; also called inner domain of the S-layer; source: C. crescentus rsaATEV250 strain
[1]
  stoichiometry N: 4
[2]
  stoichiometry N: 21 and 20
[3]
  stoichiometry N: 2
